Measured values: the supplement of paper PMC10126150
± gives the standard deviation of the averaged measurements.

Test system: ATP
Assay: switch fluorescence ratio, 500 uM ATP over buffer (Cy3 cluster intensity, sum of 5 cycles each) (fold (ratio)); higher = stronger signal-on switching upon ATP binding; sequences stand for … in TCGTCGGCAGCGTCAGATGTGTATAAGAGACAGTTTTTTTTTTTTTTTTTTTTTTTTT…TC
Details: aptamer strand: ATP DNA aptamer (quencher-CACCTGGGGGAGTATTGCGGAGGAAGG + anchor), 100 nM annealed; ATP concentration: 500 uM
Outline: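 Switching-strand clusters labelled with Cy3 on a modified Illumina MiSeq flow-cell were annealed to 100 nM quencher-labelled ATP aptamer, imaged in selection buffer, and re-imaged after 15 min with 500 uM ATP at 22 °C. This was done over five cycles with NaOH stripping and re-annealing in between. The fluorescence ratio is summed target-cycle over summed buffer-cycle Cy3 intensity per cluster, averaged per switch-domain sequence, excluding clusters outside 100-1000 RFU.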
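Note: ATP exposure 15 min at 22 °C before imaging.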

| Sequence | switch fluorescence ratio |
| --- | --- |
| ACTGTATGTC | 1.03 ± 0.014 |
| ACAGGCCAGC | 1.01 ± 0.022 |
| CCGATGAGCT | 1.42 ± 0.035 |
| CACATAGACG | 1.03 ± 0.046 |
| ACGGACGCCA | 1.21 ± 0.019 |
| ATTGCATTCA | 0.9949 ± 0.0041 |
| ACATATATGA | 1.06 ± 0.031 |
| CGATCGGATG | 1.03 ± 0.023 |
| TTTTTTAGAC | 1.04 ± 0.08 |
| ATTTTCAGTT | 1.01 ± 0.026 |
| AACTAAATCT | 1.023 ± 0.00042 |
| CGACTGTTTT | 1.02 ± 0.015 |
| AATATTCTGT | 0.9923 ± 0.0029 |
| TTGTTATGCG | 0.995 ± 0.012 |
| CATTGGTAAT | 1.018 ± 0.0059 |
| CGTTTTGGGA | 0.98 ± 0.013 |
| GTGAAAAACT | 1.03 ± 0.033 |
| TGTTACACCT | 1.23 ± 0.025 |
| CATTGAAAGA | 1.01 ± 0.038 |
| AGGGGCTTGC | 0.956 ± 0.036 |
| AGGGAGCTCC | 1.01 ± 0.025 |
| TGAAACTTGT | 1.01 ± 0.041 |
| TTTATCGGGC | 0.989 ± 0.019 |
| GGCGTGGGGG | 1.051 ± 0.01 |
| AACCTGGGGA | 1.12 ± 0.19 |

| Sequence | switch fluorescence ratio |
| --- | --- |
| TGGTTTTGAT | 1.001 ± 0.0047 |
| TTGCAAATTT | 1.79 ± 1.4 |
| CTAAAGATCG | 1.03 ± 0.049 |
| GTGATTGCGG | 1.02 ± 0.069 |
| GAGCTATCAC | 1.16 ± 0.035 |
| TTCAGCTTTT | 0.984 ± 0.037 |
| AGTTAGCAGA | 0.995 ± 0.026 |
| TTAGAAAGTC | 1.64 ± 0.93 |
| CATGGCGGAG | 1.03 ± 0.023 |
| TTAAGACCAC | 1.01 ± 0.012 |
| CGGTTCGTTA | 0.9795 ± 0.004 |
| GAAATTTGG | 1.01 ± 0.061 |
| AATAGTTAGG | 1.02 ± 0.012 |
| TGGGATATTC | 0.9991 ± 0.0032 |
| TTTTTTAGTC | 1 ± 0.04 |
| TTTTTCTTTT | 0.993 ± 0.029 |
| GGGGCGTCAG | 0.97 ± 0.013 |
| CGGTCCCTGC | 1.01 ± 0.1 |
| GAATGGGTTG | 1.01 ± 0.028 |
| CATTTCAGGT | 1.03 ± 0.069 |
| ATTTAGTTTA | 0.996 ± 0.017 |
| CGGTCTGTT | 0.9878 ± 0.0066 |
| ATTTGGACGT | 1.02 ± 0.016 |
| GGTGTGAGTG | 0.973 ± 0.025 |
| GCCACACTAG | 1.06 ± 0.032 |

| Sequence | switch fluorescence ratio |
| --- | --- |
| TTGGTTTTTG | 1 ± 0.037 |
| ATATAAAAAA | 1.01 ± 0.026 |
| CGTTTTTAAT | 1.01 ± 0.021 |
| AGGTTTTCTA | 1.012 ± 0.0036 |
| ATTATGGCAC | 1.01 ± 0.0041 |
| GCGAGCCAGG | 2.169 ± 0.011 |
| ATTGGGGAGA | 1.04 ± 0.052 |
| GTCTAAGGGG | 1.11 ± 0.25 |
| GTAGGGGGTG | 1.02 ± 0.065 |
| ATTGTCGTGA | 0.991 ± 0.037 |
| GGTTTTTTGT | 0.992 ± 0.017 |
| AGGATCTATG | 1.03 ± 0.021 |
| ATACGTTGG | 0.9748 ± 0.0046 |
| CGGGTTTGTG | 0.973 ± 0.032 |
| TAGAGGGGGA | 0.987 ± 0.018 |
| TCGTTGAATG | 0.956 ± 0.014 |
| GTGGGACTGT | 1.015 ± 0.0021 |
| TAGATATTTT | 0.986 ± 0.032 |
| GTCAGTGGGG | 1.02 ± 0.052 |
| TTCTTTTTAG | 0.9793 ± 0.0051 |
| TTGAAGTAGC | 1.01 ± 0.044 |
| TGGGAGTACT | 1.0104 ± 0.00041 |
| AAAGAGAGTA | 1.01 ± 0.038 |
| GTTTTTTTT | 1.05 ± 0.069 |
| TGGTATTGCT | 0.9955 ± 0.0098 |

| Sequence | switch fluorescence ratio |
| --- | --- |
| GCTGGAAAAT | 1 ± 0.013 |
| CAGTAGTCGC | 1.01 ± 0.03 |
| AAAGGTGGGG | 1.001 ± 0.01 |
| AGCTGTTGCA | 0.971 ± 0.024 |
| TTCGGGATGA | 1 ± 0.056 |
| TGGGTTTTAG | 0.977 ± 0.013 |
| AACCAGAAGG | 1.01 ± 0.035 |
| TTGCTTTGTT | 1.0015 ± 0.001 |
| AACTGCAATT | 2 ± 1.1 |
| GTTAGTAATC | 1.06 ± 0.014 |
| TACGACACCT | 1.73 ± 0.027 |
| ACGATTATGC | 1.04 ± 0.11 |
| TAATGGTATT | 0.97547 ± 0.00097 |
| CAAAAGTGAT | 1.01 ± 0.024 |
| TCAGCGAAAT | 0.99 ± 0.016 |
| GGGGGTGGGT | 1 ± 0.021 |
| GGCTTAGGTG | 1.26 ± 0.06 |
| GGTGACGTGG | 1.02 ± 0.012 |
| ATAGGAGCAG | 1.01 ± 0.048 |
| TGGGGTTTGC | 0.991 ± 0.032 |
| CGTGCTGTTA | 0.98019 ± 0.0002 |
| AACAAGCTAT | 1.03 ± 0.055 |
| AAGGTGTTTG | 1.05 ± 0.04 |
| GAGGTCGTGA | 0.975 ± 0.019 |
| GGCTAGAGCT | 0.982 ± 0.032 |

| Sequence | switch fluorescence ratio |
| --- | --- |
| GGATTTGTGT | 1.01 ± 0.034 |
| GAACCTCGTG | 1.03 ± 0.035 |
| GAAATCGGTG | 0.995 ± 0.036 |
| ATGCTTGAAC | 1.037 ± 0.0095 |
| CAGTAAAGGG | 0.9703 ± 0.0059 |
| TTGCAGATTT | 0.985 ± 0.028 |
| ACGATTTTTC | 0.974 ± 0.056 |
| GGTATATTGG | 1.01 ± 0.012 |
| ATAAGTCAAA | 0.99 ± 0.016 |
| AAAGACAGGG | 0.976 ± 0.036 |
| TGGAAGTTGG | 0.989 ± 0.023 |
| TTGGATTTTC | 1.04 ± 0.032 |
| CGATGGTGGC | 1.073 ± 0.0067 |
| TCGGGGGGAT | 1.21 ± 0.36 |
| ATGGGGCTTG | 1.05 ± 0.099 |
| ACCTGGGTAT | 1.01 ± 0.049 |
| ATTATTGGGA | 1 ± 0.046 |
| TTGAGAGATT | 1.011 ± 0.0091 |
| AGAGGGAAGG | 0.959 ± 0.014 |
| TGCGTCAGGG | 0.974 ± 0.015 |
| ATGAGGTTGG | 0.973 ± 0.055 |
| AAAGGGGTAA | 0.982 ± 0.02 |
| TTTTTTCTAT | 0.996 ± 0.067 |
| AGGTACAGTA | 1.017 ± 0.0017 |
| ATAGTCAAAG | 0.998 ± 0.034 |

| Sequence | switch fluorescence ratio |
| --- | --- |
| ATGATTTGGG | 1.01 ± 0.011 |
| ATTAGTCAGG | 1.03 ± 0.019 |
| TTTTTCTCAG | 1.01 ± 0.031 |
| ACCAACTCAG | 1.24 ± 0.037 |
| TAGCATGTGG | 1.0006 ± 0.0008 |
| TTTACTATTG | 1.03 ± 0.03 |
| ACGTAACATG | 1.24 ± 0.015 |
| CTGGGATTTT | 0.959 ± 0.0021 |
| TTACTAGTAT | 1 ± 0.025 |
| GGCGCTTTGT | 0.979 ± 0.02 |
| GTGCTTTTGG | 0.9997 ± 0.008 |
| GATTTTTCAA | 1 ± 0.021 |
| CCATGGGTGC | 1.34 ± 0.024 |
| GAAAAAGAGA | 0.9736 ± 0.0016 |
| TAACTAGGAG | 1.12 ± 0.16 |
| CTTAGGGGTG | 0.973 ± 0.011 |
| ATTTATGTAA | 0.987 ± 0.012 |
| TAAAGGGTGG | 0.987 ± 0.032 |
| TCGAGGGGGG | 1.05 ± 0.096 |
| GGGGGAAAGT | 0.992 ± 0.026 |
| ACATGGGTGG | 0.962 ± 0.051 |
| CGGGTGGGTA | 1 ± 0.023 |
| TATAGCTTGG | 1 ± 0.029 |
| GCGCCAAGAG | 1.29 ± 0.11 |
| ATCGGGTTAG | 0.998 ± 0.016 |

| Sequence | switch fluorescence ratio |
| --- | --- |
| CCAACATGGG | 1.03 ± 0.02 |
| GGTTAATTGT | 0.993 ± 0.033 |
| ACTTAACATT | 1.18 ± 0.056 |
| CGAGTGGGTG | 0.996 ± 0.018 |
| AACTCCTAAG | 1.03 ± 0.021 |
| TGGCTTGCCG | 0.998 ± 0.027 |
| TGGGATACGG | 1.61 ± 1 |
| GGAATTAAAT | 0.985 ± 0.027 |
| CGAGGTGGGA | 0.9972 ± 0.0025 |
| CAAGCTTAGG | 0.995 ± 0.014 |
| AGTACTAGGA | 0.993 ± 0.011 |
| GGTTTCTACA | 1 ± 0.034 |
| TGTCGGGATG | 1.01 ± 0.022 |
| TTGAGGTACG | 1.03 ± 0.082 |
| TTAGTGTCGT | 1.02 ± 0.017 |
| TGGATGTATT | 1.28 ± 0.4 |
| AAACGGGGCT | 1.02 ± 0.012 |
| CCAAGTGAC | 1.26 ± 0.028 |
| TTCCAGGGCA | 1.02 ± 0.022 |
| CGGGTGCAAG | 1.03 ± 0.027 |
| AAGGAGTATT | 1.01 ± 0.026 |
| TAAGAATCGC | 1.15 ± 0.2 |
| GCACGGATGT | 1.029 ± 0.0097 |
| TAGGGGAATA | 1.01 ± 0.044 |
| CGGTTTGGGG | 0.991 ± 0.027 |

| Sequence | switch fluorescence ratio |
| --- | --- |
| TCGAGGGGAG | 0.978 ± 0.016 |
| TATGTTAAC | 1.02 ± 0.012 |
| TATTTGTGTC | 0.982 ± 0.057 |
| GTATTAGTGT | 1.006 ± 0.0073 |
| TTTTATATAT | 1.014 ± 0.0079 |
| TATAAAAAGC | 1 ± 0.013 |
| AAGGATGGGA | 1 ± 0.023 |
| AACGAGAGGA | 0.986 ± 0.012 |
| TAATAAAATT | 1.04 ± 0.083 |
| TTTTTACTGC | 0.997 ± 0.029 |
| TGTTTTCGTG | 0.985 ± 0.015 |
| AGGCGGCTGA | 1.05 ± 0.021 |
| GCCGCGGGGA | 1.04 ± 0.024 |
| AGGGGTGTG | 1 ± 0.046 |
| GATTGTGCCG | 1.03 ± 0.061 |
| GTTGTAAGGG | 0.998 ± 0.04 |
| TGGGGTAGTG | 1.01 ± 0.025 |
| ATGTTTGCTT | 0.974 ± 0.025 |
| AACAGTATTT | 1.04 ± 0.011 |
| ACCAGGTGGT | 1.78 ± 1.1 |
| CTGAATTAGT | 1.01 ± 0.019 |
| ATATCGAGTT | 0.9894 ± 0.00022 |
| GGCTTCCCTG | 1.19 ± 0.025 |
| TTTGGTAGGG | 1.02 ± 0.021 |
| TTAACATACG | 1.38 ± 0.042 |
